Like-named read-outs stand apart in the source and are kept apart here.
Legend:
[1] = target: T1, WIV1 Spike on pseudovirus (WIV1 (bat SARS-like coronavirus)); assay: cell-based or functional assay
[2] = target: T2, SARS-CoV-1 Spike on pseudovirus (SARS-CoV-1, UniProt P59594 14-1255); assay: cell-based or functional assay
[3] = target: SARS-CoV-1 spike trimer (recombinant) (SARS-CoV-1, UniProt P59594 14-1195)
[4] = target: T1, WIV1 Spike on pseudovirus; assay: cell-based or functional assay; remark: listed apart in the source
[5] = target: T2, SARS-CoV-1 Spike on pseudovirus; assay: cell-based or functional assay; remark: listed apart in the source
[6] = target: T1, WIV1 Spike on pseudovirus; assay: cell-based or functional assay; remark: listed apart in the source
[7] = target: T2, SARS-CoV-1 Spike on pseudovirus; assay: cell-based or functional assay; remark: listed apart in the source

B1: AB-1 (antibody, V domains shown)
VH: EVQLVESGAEVKKPGESLKISCKGSGYTFTRYWIGWVRQMPGKGLEWMGIIYPGDSDVRYSPSFQGHVTISADKSISTAYLQWNSLKASDTAMYYCARLPQYCSKGVCYRWFDPWGQGTLVTVSS
VL: EIVLTQSPSSVSASVGDRVTITCRASQGISSWLAWYQQKPGKAPKLLIYAASSLQSGVPSRFSGSGSGTDFTLTISSLQPEDFATYYCQQGHSFPYTFGQGTNLEIK
IC50, pseudovirus neutralization [1]: 0.069 µg/mL
IC50, pseudovirus neutralization [2]: 0.04 µg/mL
EC50 [3]: 0.065 µg/mL
% neutralization at 4.5 µg/ml, pseudovirus [4]: 101%
% neutralization at 4.5 µg/ml, pseudovirus [5]: 99%
IC50, pseudovirus neutralization [6]: 0.0139 µg/mL
IC50, pseudovirus neutralization [7]: 0.009 µg/mL

— patent US20230357367A1 (GENERATE BIOMEDICINES, published 2023)
